Here are results for one molecule from patent US20240254229A1 (Molecular Partners, published 2024).

As a reminder, the kon is the rate constant with which the complex forms. As a reminder, the EC50 is the concentration that produces a half-maximal response.

For experiment [1], the target named is T1, hCD33 (recombinant, construct not stated) (human, UniProt P20138 18-259, limits assumed).
T1 construct: also called CD33 (Ligand 1)
The experiment can be described thus: switchSENSE, CD33 and CD123 on one chip; kon to CD33. How it is done:
(§1) The designed ankyrin repeat proteins: DARPin® protein #20, DARPin® protein #21, DARPin® protein #22, DARPin® protein #27, DARPin® protein #40 and DARPin® protein #41 were tested in a concentration of 0.16 and 64 nM (in a buffer PE140 containing 10 mM Na2HPO4/NaH2PO4, 140 mM NaCl, 0.05% Tween20, 50 μM EDTA, 50 μM EGTA) for binding against two ligands hCD33 and hCD123, which both were immobilized simultaneously to DNA nanolevers, on the surface, at a pre-defined ratio (2:1, CD33:CD123) and 10% density (100:50) on an ADP-48-1-0 chip, where 100% density 1000 receptors/μm2 (preincubated R1-B48-CD123 and G1-A48-CD33 (100 nM) diluted in cNL-48 (dark)). Briefly the following steps were performed: [0724] Conjugation. Amine coupling of the two ligands (CD33 and CD123) to the DNA nanolever (A48, B48, respectively) and purification of the conjugates using the proFIRE® solution (Dynamic Biosensors GmbH) at 25° C. [0725] Evaluation of all the combined affinity and avidity of all different proteins to both ligands attached on the surface of an ADP chip using a DRX+ instrument (dynamic BIOSENSORS). [0726] Statistical analysis (repeatability from 2 to 5 times) including regeneration of the chip surface every concentration analyzed and long dissociation times and data were fitted using a bi-exponential global fit.

In experiment [2] the target is T2, hCD33 and hCD123 immobilized simultaneously on one switchSENSE chip (ratio 2:1, CD33:CD123) (human, UniProt P20138 18-259; P26951 19-305, limits assumed).
T2 construct: Not a complex: two separate ligands on one surface; used for avidity values and for off-rates; also called both ligands; both targets attached to the surface of the chip
The experiment can be described thus: switchSENSE, hCD33 and hCD123 co-immobilised 2:1; panel headed CD123, column KD2 (avidity, simultaneous binding of CD33 and CD123 per paragraph 696). Here is the method: as §1

Experiment [3] has as its target T3, hCD123 (recombinant, construct not stated) (human, UniProt P26951 19-305, limits assumed).
T3 construct: also called CD123 (Ligand 2)
T3 sequence (looked up): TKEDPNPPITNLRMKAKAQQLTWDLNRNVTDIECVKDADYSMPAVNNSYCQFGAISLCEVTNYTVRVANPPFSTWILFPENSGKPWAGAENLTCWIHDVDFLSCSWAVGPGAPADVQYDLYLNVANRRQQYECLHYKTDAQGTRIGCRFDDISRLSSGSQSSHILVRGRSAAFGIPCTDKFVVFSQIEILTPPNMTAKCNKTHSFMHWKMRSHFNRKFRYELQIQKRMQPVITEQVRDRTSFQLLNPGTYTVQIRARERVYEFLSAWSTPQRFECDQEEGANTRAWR
Put plainly: switchSENSE; KD,1 (affinity). How it is done: as §1

Experiment [4] addresses T1, hCD33 (recombinant, construct not …). The experiment can be described thus: switchSENSE; KD,1 (affinity). Here is the method:
as §1

The target in experiment [5] is T4, human CD3 on primary human pan-T cells (human, UniProt P07766 23-207; P09693 23-182; P04234 22-171; P20963 22-164).
T4 construct: whole, on cells; Native complex on T cells isolated from PBMC; also called CD3 on Pan-T cells
The experiment can be described thus: Mirrorball cytometry on primary human pan-T cells, 600 µM HSA. How it is done:
The determination of T cell binding was performed with primary human T cells using Mirrorball laser scanning imaging cytometry. Therefore, primary T cells were isolated from human peripheral blood mononuclear cells (PBMCs) using a pan-T cell purification kit (Miltenyi Biotec). A titration of DARPin® protein #27, DARPin® protein #28 and DARPin® protein #29 and DARPin® protein #30 were incubated with 50′000 pan-T cells per well in presence of 600 μM human serum albumin (to mimic physiological serum concentration) for 30 minutes at 4° C. Two benchmark T-cell engagers, AMG330 and flotetuzumab were applied as controls, targeting CD33 or CD123. After washing, CD3 binding was detected by 1:100-diluted anti-penta-His Alexa Fluor 488 antibody (Qiagen). After 30 min incubation at 4° C., cells were washed and resuspended in Cytofix fixation buffer (BD Biosciences) and counterstained by 5 μM DRAQ5 (Abcam) for 15 min at RT. Median of mean fluorescence intensities of Alexa Fluor 488 binding on far-red counterstained cells were measured by Mirrorball using Cellista software (SPT Labtech) and data was plotted using GraphPad Prism 8.

Experiment [6] deals with T3, hCD123 (recombinant, construct not …). The experiment can be described thus: switchSENSE, hCD33 and hCD123 co-immobilised 2:1; panel headed CD123, column KD1 (affinity). Here is the method: as §1
Experiment [7] has as its target T1, hCD33 (recombinant, construct not …). The experiment can be described thus: switchSENSE, hCD33 and hCD123 co-immobilised 2:1; panel headed CD33, column KD1 (affinity).
The target in experiment [8] is T2, hCD33 and hCD123 immobilized …. Put plainly: switchSENSE, hCD33 and hCD123 co-immobilised 2:1; panel headed CD33, column KD2 (avidity, simultaneous binding of CD33 and CD123 per paragraph 696). Here is the method: as §1
The target in experiment [9] is T3, hCD123 (recombinant, construct not …). The experiment can be described thus: switchSENSE, CD33 and CD123 on one chip; kon to CD123. Here is the method:
as §1

In experiment [10] the target is T2, hCD33 and hCD123 immobilized …. The experiment can be described thus: switchSENSE; KD,2 against KD,1. How it is done:
as §1

T1 sequence (P20138 18-259 limits assumed): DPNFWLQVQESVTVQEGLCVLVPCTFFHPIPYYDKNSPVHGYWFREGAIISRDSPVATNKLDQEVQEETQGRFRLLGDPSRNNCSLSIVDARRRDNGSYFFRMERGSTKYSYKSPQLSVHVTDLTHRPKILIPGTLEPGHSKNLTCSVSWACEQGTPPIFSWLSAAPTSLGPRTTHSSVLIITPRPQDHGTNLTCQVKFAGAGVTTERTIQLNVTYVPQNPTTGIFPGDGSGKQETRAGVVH
T4 sequence (P07766 23-207, chain 1 of 4): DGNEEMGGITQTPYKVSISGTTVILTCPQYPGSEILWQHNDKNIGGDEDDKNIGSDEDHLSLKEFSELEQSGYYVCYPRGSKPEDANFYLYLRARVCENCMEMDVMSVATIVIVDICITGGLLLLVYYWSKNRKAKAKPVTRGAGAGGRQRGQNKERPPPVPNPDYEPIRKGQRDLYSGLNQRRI
T4 sequence (P09693 23-182, chain 2 of 4): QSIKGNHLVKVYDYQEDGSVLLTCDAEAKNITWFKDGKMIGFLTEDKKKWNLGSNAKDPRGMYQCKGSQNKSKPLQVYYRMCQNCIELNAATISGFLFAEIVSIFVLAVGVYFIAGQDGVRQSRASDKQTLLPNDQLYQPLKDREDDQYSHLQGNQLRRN
T4 sequence (P04234 22-171, chain 3 of 4): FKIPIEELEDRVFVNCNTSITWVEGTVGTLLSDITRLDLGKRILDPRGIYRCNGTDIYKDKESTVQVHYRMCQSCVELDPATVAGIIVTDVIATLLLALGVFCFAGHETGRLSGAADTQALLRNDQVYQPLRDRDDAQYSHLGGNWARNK
T4 sequence (P20963 22-164, chain 4 of 4): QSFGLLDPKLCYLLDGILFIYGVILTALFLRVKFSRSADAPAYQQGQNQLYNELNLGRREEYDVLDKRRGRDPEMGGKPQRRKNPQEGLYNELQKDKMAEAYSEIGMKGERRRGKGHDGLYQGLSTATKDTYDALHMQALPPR

B1: DARPin® protein #27 (designed binder)
chain: DLGKKLLEAALEGQLDEVRELLKAGADVNAKDQEGYTPLHLAAALGHLEIVEVLLKAGADVNAKDSIGRTPLHLAAYKGHLEIVEVLLKAGADVNAQDLLGETPADLAAEQGHQDIAEVLQKAAGSPTPTPTTPTPTPTTPTPTPTGSDLGVKLLLAASRGQLDEVRILLKAGADVNAKDIDEGYTPLHIAAYYGHLEIVEVLLKAGADVNAKDRYGKTPLHLAAISGHLEIVEVLLKAGADVNAQDDKGDTPADLAADYGHQDIAEVLQKAAGSPTPTPTTPTPTPTTPTPTPTGSDLGQKLLEAAWAGQDDEVRELLKAGADVNAKNSRGWTPLHTAAQTGHLEIFEVLLKAGADVNAKDDKGVTPLHLAAALGHLEIVEVLLKAGADVNAQDSWGTTPADLAAKYGHEDIAEVLQKAA
notes: CD123-CD33-CD3; also called αCD123-aCD33-αCD3_1; not shown: N-terminal His-tag
For the molecule B1, the kon in experiment [1] was around 1e+06 M⁻¹ s⁻¹; in [9], around 1e+07 M⁻¹ s⁻¹. In addition, the Kd in [2] was 0.3 nM; in experiment [3] it was around 4.5 nM; in [4] it was around 20 nM; in [6] it was 4.5 nM; in experiment [7], 20 nM; in experiment [8] it was 0.17 nM. In experiment [5], the EC50 turned out to be 6.52 nM. For the same molecule, in experiment [10], the “fold lower KD,2 (avidity) than the measured affinity” value was at least 14 fold.
